Laboratory results taken from patent publication US20220056141A1 (DEUTSCHES KREBSFORSCHUNGSZENTRUM STIFTUNG DES OFFENTLICHEN …, published 2022).

What was measured:
CD3 on Jurkat cells [1] = target: T1, CD3 on Jurkat cells (human, UniProt P07766 23-207); experiment: flow cytometry on Jurkat cells (CD3+), 30 min incubation, PE-conjugated goat anti-human Fc-gamma secondary antibody
T1 construct: whole, on cells; also called Jurkat (CD3+); human cluster of differentiation 3 (CD3) antigen
Method: (§1) In addition, antibody binding affinity was also tested using binding of the antibody to its target(s) as expressed on cells. Analyzed is the binding of CC-2 variants to Nalm16 cells expressing FLT3 (FIG. 4) or Jurkat cells expressing CD3 (FIG. 6). Variants V1 to V9 (with V6 being V6-V6) were produced after transient transfection of CHO cells using the insert sequences listed above. The antibodies were purified by protein A affinity- and size exclusion-chromatography. […] To measure antibody binding to FLT3 and CD3 NALM16 (FLT3+) and Jurkat (CD3+) cells were incubated with the respective variants for 30 min, washed, stained with a goat anti human Fcγ-specific and PE-conjugated secondary antibody (Jackson Immuno Research), washed again and analyzed by flow cytometry (FACSCalibur, BD Biosciences).

CD3 on Jurkat cells [2] = target: T1, CD3 on Jurkat cells; experiment: flow cytometry (value under the bar; by the legend the EC50 of the binding to Jurkat cells of FIG. 6)
Method: as §1

T1 sequence (P07766 23-207): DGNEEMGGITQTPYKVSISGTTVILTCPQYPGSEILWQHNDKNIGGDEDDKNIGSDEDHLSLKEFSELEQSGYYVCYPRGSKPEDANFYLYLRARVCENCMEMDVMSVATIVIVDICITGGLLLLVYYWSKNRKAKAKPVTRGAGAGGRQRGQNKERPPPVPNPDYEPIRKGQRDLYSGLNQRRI

B1: mouse FLT3 (4G8) x CD3 (humanized UCHT1) bispecific IgGsc antibody V6-V6 (bispecific antibody)
heavy: QVQLQQPGAELVKPGASLKLSCKSSGYTFTSYWMHWVRQRPGHGLEWIGEIDPSDSYKDYNQKFKDKATLTVDRSSNTAYMHLSSLTSDDSAVYYCARAITTTPFDFWGQGTTLTVSSASTKGPSVFPLAPSSKSTSGGTAALGCLVKDYFPEPVTVSWNSGALTSGVHTFPAVLQSSGLYSLSSVVTVPSSSLGTQTYICNVNHKPSNTKVDKKVEPKSCDKTHTCPPCPAPPVAGPSVFLFPPKPKDTLMISRTPEVTCVVVGVSHEDPEVKFNWYVDGVEVHNAKTKPREEQYNSTYRVVSVLTVLHQDWLNGKEYKCKVSNKQLPSPIEKTISKAKGQPREPQVYTLPPSRDELTKNQVSLTCLVKGFYPSDIAVEWESNGQPENNYKTTPPVLDSDGSFFLYSKLTVDKSRWQQGNVFSCSVMHEALHNHYTQKSLSLSPGKSGDIQMTQSPSSLSASVGDRVTITCRASQDIRNYLNWYQQKPGKAPKLLIYYTSRLESGVPSRFSGSGSGTDYTLTISSLQPEDFATYYCQQGNTLPWTFGQGTKVEIKGGGGSGGGGSGGGGSEVQLVESGGGLVQPGGSLRLSCAASGYSFTGYTMNWVRQAPGKGLEWVALINPYKGVSTYNQKFKDRFTISVDKSKNTAYLQMNSLRAEDTAVYYCARSGYYGDSDWYFDVWGQGTLVTVSS
light: DIVLTQSPATLSVTPGDSVSLSCRASQSISNNLHWYQQKSHESPRLLIKYASQSISGIPSRFSGSGSGTDFTLSINSVETEDFGVYFCQQSNTWPYTFGGGTKLEIKRTVAAPSVFIFPPSDEQLKSGTASVVCLLNNFYPREAKVQWKVDNALQSGNSQESVTEQDSKDSTYSLSSTLTLSKADYEKHKVYACEVTHQGLSSPVTKSFNRGEC
notes: also called CC-2; parental 4G8 x UCHT1
EC50 (read off the curve) (CD3 on Jurkat cells [1]): ~10 nM
EC50 (CD3 on Jurkat cells [2]): 10.8 nM
